Measured values reported in the supplement of paper PMC6755084.

B1: F1*; the commonest letter at each place (parent)
chain: GAGACCGCAACTGAAAAGTTGTTATCACTTGTCGTAAGACACTTTGGATGGGTTGAAGTTCTGCACGTAGAAGCAAAAGGC

Variants of: B1
Test: fraction ligated after 30 min (ligated reads / total reads); higher = more ligase activity
Settings: with F1*sub RNA substrate (template-directed ligation), 42 °C
Description: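 Chip-synthesised pool of F1* ligase ribozyme variants (all single and double substitutions, single, double and triple deletions in the catalytic core and GAA bulge, plus designed variants) was transcribed with T7 and reacted as a pool with excess substrate F1*sub for 30 min at 42 C in 50 mM EPPS pH 8.5, 25 mM MgCl2. Ligated and unligated bands were separated by PAGE, barcoded by RT and deep sequenced; fraction ligated = ligated reads / total reads per variant, relative activity = FL / FL of wild type (0.826). Sequences are the DNA template of the ribozyme.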

Variant | fraction ligated
C26T T49G | 0.405
A27G A37G | 0.848
A27G A37T | 0.81
A27G A37C | 0.817
A27G T43G | 0.796
A27G T43C | 0.806
A27G T43A | 0.829
A27G A39C | 0.8
A27G A39T | 0.814
A27G A39G | 0.799
A27C C40G | 0.783
A27C C40A | 0.817
A27C C40T | 0.818
A27G T32C | 0.77
A27G T32G | 0.827
A27G T32A | 0.795
A27C T44C | 0.788
A27C T44A | 0.79
A27C T44G | 0.798
A27C A39G | 0.809
A27C A39T | 0.789
A27C A39C | 0.785
A27G G31C | 0.798
A27G G31A | 0.776

Variant | fraction ligated
A27G G31T | 0.791
A27C A36T | 0.817
A27C A36G | 0.821
A27C A36C | 0.793
A27G A48G | 0.788
A27G A48C | 0.504
A27G A48T | 0.195
A27C C33T | 0.795
A27C C33A | 0.827
A27C C33G | 0.815
A27C T30G | 0.825
A27C T30C | 0.774
A27C T30A | 0.783
A27C G31T | 0.789
A27C G31A | 0.824
A27C G31C | 0.835
A27G C28T | 0.813
A27G C28A | 0.805
A27G C28G | 0.777
A27G G47C | 0.583
A27G G47A | 0.805
A27G G47T | 0.329
A27C G47C | 0.158
A27C G47A | 0.799

Variant | fraction ligated
A27C G47T | 0.126
A27C T35C | 0.813
A27C T35G | 0.82
A27C T35A | 0.835
A27C T45A | 0.598
A27C T45C | 0.335
A27C T45G | 0.116
A27G C42T | 0.817
A27G C42G | 0.812
A27G C42A | 0.827
A27G G34C | 0.804
A27G G34T | 0.804
A27G G34A | 0.831
A27C A56T | 0.787
A27C A56C | 0.75
A27C A56G | 0.742
A27C G55T | 0.792
A27C G55A | 0.805
A27C G55C | 0.355
A27C C42G | 0.831
A27C C42A | 0.818
A27C C42T | 0.816
A27C G38A | 0.807
A27C G38T | 0.837

Variant | fraction ligated
A27C G38C | 0.792
A27C A41T | 0.785
A27C A41C | 0.782
A27C A41G | 0.781
A27C T43C | 0.78
A27C T43G | 0.765
A27C T43A | 0.844
A27G G46A | 0.83
A27G G46C | 0.795
A27G G46T | 0.796
A27G T35G | 0.839
A27G T35A | 0.847
A27G T35C | 0.812
A27C G34A | 0.809
A27C G34T | 0.815
A27C G34C | 0.808
A27C A57T | 0.807
A27C A57G | 0.773
A27C A57C | 0.787
A27G T45G | 0.217
A27G T45A | 0.694
A27G T45C | 0.357
A27C A48G | 0.256
A27C A48T | 0.78

Variant | fraction ligated
A27C A48C | 0.748
A27C T29C | 0.802
A27C T29G | 0.797
A27C T29A | 0.818
A27T A39C | 0.782
A27G A36G | 0.805
A27G A36T | 0.826
A27G A36C | 0.822
A27G A56T | 0.769
A27G A56C | 0.767
A27G A56G | 0.755
A27C G50T | 0.37
A27C G50A | 0.18
A27C G50C | 0.0749
A27G A41G | 0.791
A27G A41C | 0.789
A27G A41T | 0.837
A27G A57G | 0.819
A27G A57C | 0.777
A27G A57T | 0.81
A27G C33G | 0.846
A27G C33A | 0.8
A27G C33T | 0.828
A27C G46C | 0.782

Variant | fraction ligated
A27C G46A | 0.82
A27C G46T | 0.78
A27G G38A | 0.83
A27G G38C | 0.798
A27G G38T | 0.824
A27G C40T | 0.817
A27G C40A | 0.79
A27G C40G | 0.813
A27T A37T | 0.808
A27T A37C | 0.818
A27T A37G | 0.846
A27C T49G | 0.733
A27C T49C | 0.519
A27C T49A | 0.701
A27G | 0.852
A27C | 0.81
A27T | 0.8
A27C C28G | 0.807
A27C C28T | 0.819
A27C C28A | 0.807
A27G T49G | 0.774
A27G T49A | 0.721
A27G T49C | 0.601
A27G T44C | 0.81

Variant | fraction ligated
A27G T44A | 0.812
A27G T44G | 0.813
A27C T32G | 0.78
A27C T32A | 0.799
A27C T32C | 0.754
A27G T30C | 0.811
A27G T30G | 0.846
A27G T30A | 0.839
A27G G55C | 0.554
A27G G55T | 0.79
A27G G55A | 0.801
A27G T29A | 0.829
A27G T29C | 0.788
A27G T29G | 0.806
A27G G50C | 0.161
A27G G50T | 0.596
A27G G50A | 0.244
A27T A36C | 0.868
A27T A36T | 0.798
A27T A36G | 0.862
A27C A37C | 0.793
A27C A37G | 0.817
A27C A37T | 0.82
